According to PMC5089960 (Angewandte Chemie (International ed. in English), 2016):

Target: the molecule itself
Experiment: crystal structure

B1: PsoE (enzyme, A. fumigatus)
chain: MVFGTLYTFPGDQCRTIAIKAVAKANGLDLDIRETPRTPDHLSISKLGKVPAFQGADSFKLFECMAIALYITSQNEQTTLLGKDKKEYAEIIKWMSFFNTEIVILMTQQLLPQLGVIPYDRDQVEFFANMTQRSVDVVEEYLQDRTFLVGDQLSLADLFCAGNISLGFQFFYGKAWRQQNPNVSRWYEMVCHQPIYAAVTDKFQLLDEPKLTNNPPEKKPETVPKNGAAVAIEATQA
stoichiometry N: 2
